From patent publication US20050042747A1, “Hivgp120-induced bob/gpr15 activation” (priority 2001, published 2005)

Experiments:
Parameters in all cases: key: — = no calcium flux seen at any dilution tested
[1] = system: Ghost (3) parental cell line; assay: gp120-induced calcium flux, Ghost (3) parental cell line; assay type: cell-based, human
Procedure: Calcium studies were done on HT-29 cells and Ghost (3) cells loaded with Fluo 4. The cells were placed in Locke's buffer containing 5 μg/ml Fluo 4 AM ester (Molecular Probes) for 20 to 30 minutes, then in Locke's buffer for an additional 30 minutes before testing. Various concentrations of gp120IIIB (X4 trophic), gp120CM235 (R5 trophic), gp120mN (X4 trophic), gp12093TH975 (nonsyncytium-inducing primary isolate from an asymptomatic subject, trophism undetermined but likely R5), and gp120SF2 (X4R5 trophic), ranging from 10 nM to less than 1 pM, were added in Locke's buffer.^6 The gp120 proteins were obtained from the AIDS Research Reagent Referral Program. Some HT-29 cells were given one of the following pretreatments: 50 μg/ml anti-Bob37 overnight, 1 μg/ml pertussis toxin overnight, or 4.6 μg/ml U73122 for one hour. With the HT-29 cells only, similar tests were also performed with SDF-1, MIP-1α, MIP-1β, and RANTES rather than gp120. The cells were visualized every 4 seconds in a confocal microscope, using 488 nm argon laser excitation and detection filters appropriate for fluorescein-like dyes.
(§1) Human osteosarcoma cell lines were transfected to express CD4, one or another of the HIV coreceptors, and a Green Fluorescent Protein reporter for active HIV infection, for the purpose of testing which of the known coreceptors was used to induce HIV infection by a given HIV strain (Morner A. J Virol 73:2343-9, 1999 and Deng K Nature 388:296-300, 1997). These cells were obtained from the AIDS Research and Reference Reagent Program, courtesy of Dr. Vineet KewalRamani and Dr. Dan Littman. These cells were grown in DMEM with 10% bovine calf serum supplemented with 0.5 mg/ml G418, 0.1 mg/ml hygromycin, and 1 microgram/ml puromycin, and were used at low passage number (less than 10). We have discovered that these cell lines are also activated by gp120 of certain viral strains, inducing a calcium flux in these cells.
Within 4 days of plating, coreceptor-transfected Ghost (3) cells (as well as the parent cell line not transfected to express any HIV coreceptors as a control) were put in Locke's medium, then treated with Fluo-4 (5 micrograms/ml for 30 minutes at 37° C.). After an additional 30 minute incubation in Locke's buffer at room temperature, the cells were examined in a confocal microscope while gp120 of various viral strains was added, and the cells were examined at 4 second intervals to look for a gp120-induced calcium flux. The results are given in the following table, expressed as the minimal concentration of gp120 resulting in a significant calcium flux. “−” means that no reproducible calcium flux was observed. “ND” means that the gp120 of that viral strain was not tested with the stated coreceptor. […]

CCR3 = biological target: T1, CCR3 (Homo sapiens, UniProt P51677); assay: gp120-induced calcium flux, Ghost (3) cells transfected with CCR3; assay type: cell-based; details: Ghost (3) CCR3 cells
T1 construct: host or cells: Ghost (3) cells (human osteosarcoma, CD4+)
T1 sequence (P51677 1-355): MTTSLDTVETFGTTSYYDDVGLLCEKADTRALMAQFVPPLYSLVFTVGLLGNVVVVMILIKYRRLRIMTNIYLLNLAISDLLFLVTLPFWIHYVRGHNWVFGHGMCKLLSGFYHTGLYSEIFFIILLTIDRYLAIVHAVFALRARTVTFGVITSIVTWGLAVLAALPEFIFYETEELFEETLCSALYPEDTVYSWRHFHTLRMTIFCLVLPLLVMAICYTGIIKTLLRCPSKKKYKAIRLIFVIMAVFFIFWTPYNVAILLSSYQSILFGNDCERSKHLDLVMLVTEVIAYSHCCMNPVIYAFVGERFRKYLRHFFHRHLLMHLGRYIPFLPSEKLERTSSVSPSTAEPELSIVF
Text: as §1
(§2) Within 4 days of plating, coreceptor-transfected Ghost (3) cells (as well as the parent cell line not transfected to express any HIV coreceptors as a control) were put in Locke's medium, then treated with Fluo-4 (5 micrograms/ml for 30 minutes at 37° C.). […] The results are given in the following table, expressed as the minimal concentration of gp120 resulting in a significant calcium flux. […]

CCR4 = biological target: T2, CCR4 (Homo sapiens, UniProt P51679); assay: gp120-induced calcium flux, Ghost (3) cells transfected with CCR4; assay type: cell-based; details: Ghost (3) CCR4 cells
T2 construct: host or cells: Ghost (3) cells (human osteosarcoma, CD4+)
T2 sequence (P51679 1-360): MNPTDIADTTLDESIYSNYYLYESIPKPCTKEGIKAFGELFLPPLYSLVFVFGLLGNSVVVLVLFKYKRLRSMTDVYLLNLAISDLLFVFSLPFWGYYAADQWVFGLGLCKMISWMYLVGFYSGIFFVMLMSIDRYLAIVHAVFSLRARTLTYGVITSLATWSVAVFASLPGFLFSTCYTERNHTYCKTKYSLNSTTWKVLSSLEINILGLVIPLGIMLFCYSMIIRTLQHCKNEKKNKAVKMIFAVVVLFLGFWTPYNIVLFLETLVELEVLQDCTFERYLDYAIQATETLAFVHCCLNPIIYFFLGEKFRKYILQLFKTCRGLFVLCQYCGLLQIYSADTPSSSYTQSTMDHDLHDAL
Text: as §1, §2

CX3CR1 = biological target: T3, CX3CR1 (Homo sapiens, UniProt P49238); assay: gp120-induced calcium flux, Ghost (3) cells transfected with CX3CR1; assay type: cell-based; details: Ghost (3) CX3CR1 cells
T3 construct: host or cells: Ghost (3) cells (human osteosarcoma, CD4+)
T3 sequence (P49238 1-355): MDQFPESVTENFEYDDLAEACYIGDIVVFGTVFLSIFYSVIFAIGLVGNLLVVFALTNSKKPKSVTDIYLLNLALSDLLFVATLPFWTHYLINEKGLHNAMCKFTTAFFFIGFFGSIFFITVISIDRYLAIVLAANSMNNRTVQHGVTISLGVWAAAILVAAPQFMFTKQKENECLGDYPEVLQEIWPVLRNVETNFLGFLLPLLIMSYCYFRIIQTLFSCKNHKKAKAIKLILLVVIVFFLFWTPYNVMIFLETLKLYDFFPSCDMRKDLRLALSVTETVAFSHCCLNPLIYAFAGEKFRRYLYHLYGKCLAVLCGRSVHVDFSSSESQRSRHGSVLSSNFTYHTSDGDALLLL
Text: as §1, §2

CXCR6/Bonzo = biological target: T4, CXCR6/Bonzo (Homo sapiens, UniProt O00574); assay: gp120-induced calcium flux, Ghost (3) cells transfected with CXCR6/Bonzo; assay type: cell-based; details: Ghost (3) CXCR6/Bonzo cells
T4 construct: host or cells: Ghost (3) cells (human osteosarcoma, CD4+)
Text: as §1, §2

Substance	minimal concentration of gp120 resulting in a significant calcium flux ([1]; Ghost (3) parental line (expresses CXCR4 at very low levels))	minimal concentration of gp120 resulting in a significant calcium flux ([1]; Ghost (3) parental line (expresses CXCR4 at very low levels), listed as IIIB) [nM]	minimal concentration of gp120 resulting in a significant calcium flux (CCR3)	minimal concentration of gp120 resulting in a significant calcium flux (CCR4)	minimal concentration of gp120 resulting in a significant calcium flux (CX3CR1)	minimal concentration of gp120 resulting in a significant calcium flux (CXCR6/Bonzo)	minimal concentration of gp120 resulting in a significant calcium flux ([1]; Ghost (3) parental line)
gp120IIIB: HIV-1 envelope surface protein gp120 of strain IIIB (X4 trophic), from the AIDS Research Reagent Referral Program	about 1 nM	250	—	—	—	—	
gp120SF2: gp120 of HIV strain SF2 (X4R5 trophic)			—	—	—	—	—
